Test results published in patent US9889184B2 (priority 2008, dated 2018).

What was measured:
Type in all cases: cell-based
[1] = test system: Fusarium oxysporum f. sp. vasinfectum (Fov); assay: Growth of Fov with NaD1 and proteinase inhibitors (Example 6); conditions: 40 h, FIG. 6
Experimental: The inhibitory effects of defensin (NaD1) and proteinase inhibitors on the growth of Fusarium oxysporum f. sp. vasinfectum (Fov) (Australian isolate VCG01111 isolated from cotton and provided by Farming Systems Institute, DPI, Queensland, Australia) were measured essentially as described by Broekaert et al, supra 1990. Spores were isolated from sporulating cultures growing in ½ strength potato dextrose broth (PDB). The Fov culture was grown in ½ PDB for 1-2 weeks at room temperature, before spores were separated from hyphal matter by filtration through sterile tissue paper. The concentration of spores in the filtrate was measured using a hemocytometer. NaD1 and the proteinase inhibitors were prepared as described in Example 4. The conditions used for the fungal growth assay were the same as those described in Example 4. After 40h at 25° C. fungal growth was assessed by measuring optical density at 595 nm (A595).

Fusarium graminearum [2] = conditions: concentrations up to 18.5 uM in the absence of NaD1
Fusarium graminearum [3] = conditions: F. graminearum
[4] = test system: Colletotrichum graminicola; conditions: C. graminicola, 40 h, FIG. 7

B1: NaCys2: cystatin from Nicotiana alata, bacterially expressed (SEQ ID NO:4) (protein)
chain: MANLGGIREAGGSENSLEINDLARFAVDGHNKKQNALLEFRKVVNVKEQVVAGTMYYITLEATEGGKKKAYEAKVWVKPWQNFKQLEDFKLIGDAASA
modifications: Nicotiana alata (NaCys2)
With B1 the “synergy with NaD1 on growth inhibition” value [1] was “Less, but significant synergy”, the “effect on hyphal growth” value (Fusarium graminearum [2]) was “no effect on hyphal growth” and the “synergy with the petunia defensin PhD1A on growth inhibition” value (Fusarium graminearum [3]) was “synergistic effect”. For the same molecule, the “synergy with the tomato defensin Tomdef2 on growth inhibition” value (Fusarium graminearum [3]) was “synergistic effect” and the “synergy with NaD1 on growth inhibition” value [4] was “synergistic effect”.
